# Source: paper PMC8651787, “Tankyrase-1-mediated degradation of Golgin45 regulates glycosyltransferase trafficking and protein glycosylation in Rab2-GTP-dependent manner” (Communications Biology, 2021)
# T1: TNKS1-Arc1 (183–335aa) (human, UniProt O95271 183-335)
# T1 construct: human Tankyrase-1 (TNKS1), ARC (Ankyrin Repeat Cluster) domain 1, residues 183-335; pET24b plasmid; also called Arc I; ArcI; source: E. coli BL21 (DE3), purified (Ni-NTA Agarose); not shown: His6, C-terminal, kept
# T1 sequence (looked up): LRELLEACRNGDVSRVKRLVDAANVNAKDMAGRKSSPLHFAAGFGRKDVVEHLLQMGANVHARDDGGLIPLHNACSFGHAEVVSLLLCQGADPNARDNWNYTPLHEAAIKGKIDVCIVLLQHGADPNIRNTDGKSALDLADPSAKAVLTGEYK
# How the values were obtained:
# TNKS1-Arc1 (183–335aa) [1] = biological target: T1, TNKS1-Arc1 (183–335aa); test: pull-down; 150 μg GST fusion protein on Glutathione-Sepharose 4B beads; 0.1 μM prey protein; 25 mM Hepes pH 7.4, 150 mM NaOAc, 0.2% Triton, 1 mM DTT; 4 °C, 2 h; western blot; details: both partners purified
# TNKS1-Arc1 (183–335aa) [2] = biological target: T1, TNKS1-Arc1 (183–335aa); test: BLI; Octet RED96; GST fusion proteins loaded on GST biosensors at 10 ug/ml; TNKS1-Arc1 as analyte (0.16-4.56 μM); 25 °C; 25 mM Hepes pH 7.4, 150 mM NaOAc, 0.2% Triton, 1 mM DTT; steady-state fit; details: both partners purified
binding result (TNKS1-Arc1 (183–335aa) [1]),Kd (TNKS1-Arc1 (183–335aa) [2]) [nM],Binder
binds,–,"GST-Golgin45 N70 S49D (domain or fragment, human, UniProt Q9H2G9 1-70, looked up, Golgin45 (BLZF1), N-terminal residues 1-70, phospho-mimicking S49D in the Cdc2 consensus 49SPWK52; also called GST-Golgin45 S49D mutant; source: E. coli BL21 (DE3), purified (Glutathione HiCap Matrix)) MTTKNLETKVTVTSSPIRGAGDGMETEEPPKSVEVTSGVQSRKHHSLQDPWKKAVPSESPGVLQLGKMLT"
–,~1460,"GST-Golgin45 N-terminal domain (amino acid 1–70) (domain or fragment, human, UniProt Q9H2G9 1-70, looked up, Golgin45 (BLZF1), N-terminal residues 1-70; pGEX-6p-1 plasmid; also called GST-Golgin45 N70 wt; Golgin45 N70 WT; source: E. coli BL21 (DE3), purified (Glutathione HiCap Matrix)) MTTKNLETKVTVTSSPIRGAGDGMETEEPPKSVEVTSGVQSRKHHSLQSPWKKAVPSESPGVLQLGKMLT"
–,2780 ± 80,"GST-Golgin45 N70 S15D (domain or fragment, human, UniProt Q9H2G9 1-70, looked up, Golgin45 (BLZF1), N-terminal residues 1-70, phospho-mimicking S15D in the Cdc2 consensus 15SPIR18; also called S15D mutated GST-Golgin45; Golgin45 S15D mutant; source: E. coli BL21 (DE3), purified (Glutathione HiCap Matrix)) MTTKNLETKVTVTSDPIRGAGDGMETEEPPKSVEVTSGVQSRKHHSLQSPWKKAVPSESPGVLQLGKMLT"
